Results: article PMC5540154

Target: D. melanogaster Isu (fIscU) (D. melanogaster) (UniProt Q9VHK6)
Experiment: SEC

- stoichiometry N: 2
Substance: D. melanogaster Isu (fIscU) (from UniProt Q9VHK6 1-154) (natural protein)
